Test results: US20240400675A1 (published 2024)
One block for each binder: values may come before it.

Assays:
human CLDN6 [1] = target: T1, human CLDN6 (human, UniProt P56747 1-220); assay: flow cytometry on HEK293-Trex cells stably expressing the claudin
T1 construct: also called Claudin 6
T1 sequence: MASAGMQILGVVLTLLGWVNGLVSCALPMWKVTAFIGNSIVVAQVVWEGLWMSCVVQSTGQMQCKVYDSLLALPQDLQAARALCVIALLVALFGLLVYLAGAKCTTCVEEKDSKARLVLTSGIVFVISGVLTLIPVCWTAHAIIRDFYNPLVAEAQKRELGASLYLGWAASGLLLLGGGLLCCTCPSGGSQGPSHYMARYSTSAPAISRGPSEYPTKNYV

human CLDN9 = target: T2, human CLDN9 (human, UniProt O95484 1-217); assay: flow cytometry on transfected HEK293E cells
T2 construct: also called CLND9
T2 sequence: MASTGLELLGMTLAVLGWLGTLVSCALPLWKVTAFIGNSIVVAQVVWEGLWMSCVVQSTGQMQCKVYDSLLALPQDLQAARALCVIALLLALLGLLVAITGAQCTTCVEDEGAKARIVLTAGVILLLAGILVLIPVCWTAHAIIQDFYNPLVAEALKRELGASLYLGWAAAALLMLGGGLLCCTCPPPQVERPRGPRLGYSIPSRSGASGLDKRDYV
Experimental: (§1) The following experiments used to screen CLDN6 binding domains were generally performed as follows. HEK293T or HEK293E cells were respectively stably or transiently transfected to express CLDN6, CLND9, or other targets of interest. 48 hours post transfection, cells were harvested and incubated with dilutions of the indicated test articles for 1 hour at 4° C. […] Binding was then assessed via flow cytometry.

human CLDN6 [2] = target: T1, human CLDN6; assay: flow cytometry on transfected cells
human CLDN6 [3] = target: T1, human CLDN6; assay: flow cytometry on HEK293E cells expressing CLDN6 or CLDN9; EC50 on CLDN9 cells divided by EC50 on CLDN6 cells
Experimental: as §1

B1: XENP34221, humanized C6-30 H2L2 bivalent mAb (antibody, human IgG1, kappa, V domains shown)
VH: EVQLVQSGAEVKKPGESLRISCKTSGYTFTEYTMHWVRQMPGKSLEWMGGIDPNNGNTHYNQKFQGHVTISVDKSISTAYLQWSSLKASDTAMYYCARIYYFGRLYFDFWGAGTLVTVSS
VL: DIQMTQSPDSLAVSLGERATINCKASEDIYNRLAWYQQKPGQVPKLLISGATSLETGVPSRFSGSGSGKDYTLTISSLQAEDVAVYYCQQYWSSPLTFGGGTKVEIKR
notes: IgG1 with ablation variant; copies: 2 + 2
binding result (human CLDN6 [1]): binds

B2: XENP35101 having H2.8_L1 (antibody, human IgG1, kappa, V domains shown)
VH: EVQLVQSGAEVKKPGESLRISCKTSGYTFTEYTMHWVRQMPGKSLEWMGGIDPNNDNTHYNQKFQGHVTISVDKSISTAYLQWSSLKASDTAMYYCARIYYFGRLYFDFWGAGTLVTVSS
VL: DIQMTQSPSSLSASVGDRVTITCQASEDIYNRLAWYQQKPGKVPKLLISGATSLETGVPSRFSGSGSGKDYTFTISSLQPEDIATYYCQQYWSSPLTFGGGTKVEIKR
notes: Bivalent mAb; also called C6-30 H2.8_L1; copies: 2 + 2
binding result (human CLDN9): binds

B5: XENP34218, humanized C6-30 H1L1 bivalent mAb (antibody, human IgG1, kappa, V domains shown)
VH: QVQLVQSGAEVKKPGASVKVSCKTSGYTFTEYTMHWVRQAPGQSLEWMGGIDPNNGNTHYNQKFQGRVTITVDKSASTAYMELSSLRSEDTAVYYCARIYYFGRLYFDFWGAGTLVTVSS
VL: DIQMTQSPSSLSASVGDRVTITCQASEDIYNRLAWYQQKPGKVPKLLISGATSLETGVPSRFSGSGSGKDYTFTISSLQPEDIATYYCQQYWSSPLTFGGGTKVEIKR
notes: IgG1 backbone with E233P/L234V/L235A/G236del/S267K ablation variant; also called XENP34218_HIL1
CLDN9/CLDN6 EC50 ratio (human CLDN6 [3]): 23

B7: XENP36972 having H1_L1.187 (antibody, human IgG1, kappa, V domains shown)
VH: QVQLVQSGAEVKKPGASVKVSCKTSGYTFTEYTMHWVRQAPGQSLEWMGGIDPNNGNTHYNQKFQGRVTITVDKSASTAYMELSSLRSEDTAVYYCARIYYFGRLYFDFWGAGTLVTVSS
VL: DIQMTQSPSSLSASVGDRVTITCQASEDIYNRLAWYQQKPGKVPKLLISGATSLETGVPSRFSGSGSGKDYTFTISSLQPEDIATYYCQQYWSAPLTFGGGTKVEIKR
notes: Bivalent mAb; also called C6-30 H1_L1.187; copies: 2 + 2
CLDN9/CLDN6 EC50 ratio (human CLDN6 [3]): 52.6

Second part, the binder after the results:

binding result (human CLDN6 [2]): binds
B3: XENP34220, humanized C6-30 H2L1 bivalent mAb (antibody, human IgG1, kappa, V domains shown)
VH: EVQLVQSGAEVKKPGESLRISCKTSGYTFTEYTMHWVRQMPGKSLEWMGGIDPNNGNTHYNQKFQGHVTISVDKSISTAYLQWSSLKASDTAMYYCARIYYFGRLYFDFWGAGTLVTVSS
VL: DIQMTQSPSSLSASVGDRVTITCQASEDIYNRLAWYQQKPGKVPKLLISGATSLETGVPSRFSGSGSGKDYTFTISSLQPEDIATYYCQQYWSSPLTFGGGTKVEIKR
notes: IgG1 backbone with ablation variant; copies: 2 + 2

binding result (human CLDN9): binds
B4: XENP35102 having H2.9_L1 (antibody, human IgG1, kappa, V domains shown)
VH: EVQLVQSGAEVKKPGESLRISCKTSGYTFTEYTMHWVRQMPGKSLEWMGGIDPNNANTHYNQKFQGHVTISVDKSISTAYLQWSSLKASDTAMYYCARIYYFGRLYFDFWGAGTLVTVSS
VL: DIQMTQSPSSLSASVGDRVTITCQASEDIYNRLAWYQQKPGKVPKLLISGATSLETGVPSRFSGSGSGKDYTFTISSLQPEDIATYYCQQYWSSPLTFGGGTKVEIKR
notes: Bivalent mAb; also called C6-30 H2.9_L1; copies: 2 + 2

binding result (human CLDN6 [2]): binds
B6: XENP35093 (having C6-30 H1.9_L1) (antibody, human IgG1, kappa, V domains shown)
VH: QVQLVQSGAEVKKPGASVKVSCKTSGYTFTEYTMHWVRQAPGQSLEWMGGIDPNNANTHYNQKFQGRVTITVDKSASTAYMELSSLRSEDTAVYYCARIYYFGRLYFDFWGAGTLVTVSS
VL: DIQMTQSPSSLSASVGDRVTITCQASEDIYNRLAWYQQKPGKVPKLLISGATSLETGVPSRFSGSGSGKDYTFTISSLQPEDIATYYCQQYWSSPLTFGGGTKVEIKR
notes: Bivalent mAb; also called G55A; copies: 2 + 2
